According to the supplement of paper PMC10567573:

B1: RTP4 (parent)
chain: AFGWFRCSSCQRSWASAQVQILCH
B2: OR3A1 (parent)
chain: PMYFFLGNLSVLDVGCISVTVPSM

Variants of: B1
Test: protein stability index of a GFP-peptide fusion (GPS, HEK-293T) (PSI 1-6); higher = more stable
Conditions: c terminus: a fixed tail appended
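Also: lentivirally expressed fusions sorted by FACS into six bins by GFP to DsRed ratio, PSI derived from sequencing read proportions per bin multiplied by bin number.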

Protein stability index, by site and new letter:
Q11: K 3.01 | Y 4.15 | I 3.81 | W 1.81 | E 1.88 | H 2.43 | P 2.27 | D 2.83 | G 2.23 | T 3.55 | R 2.89 | N 2.49 | V 4.38
C7: H 2.97 | D 3.61 | I 2.4 | S 3.67 | E 2.89 | L 4.23 | V 3.3 | Y 2.67 | K 3.9
I21: G 1.49 | T 2.9 | R 1.72 | S 3.43 | W 1.37 | C 3.07 | N 1.68 | H 2.27 | K 1.03 | Y 3.2 | A 1.68 | Q 1.62 | L 2.34 | F 2.39
R12: W 2.71 | Q 3.2 | Y 2.83 | T 3.84 | K 1.9 | S 2 | I 2.33 | D 2.1 | C 3.76 | M 2.86 | L 1.65 | P 3.2 | N 1.91
A15: F 2 | V 1.07 | N 4.46 | S 2.04 | Y 2.87 | K 2.12 | W 2.79 | I 1.53 | H 1.83 | D 1.24 | C 2.98 | E 1.6
Q20: C 2.17 | W 1.69 | P 3.22 | H 2.97 | D 1.66 | S 2.84 | L 4.4 | N 2.4 | Y 3.08 | A 1.57 | I 2.42 | T 1.24 | K 2.83 | V 2.08
W14: L 1.57 | H 1.95 | S 2.45 | T 3.22 | C 3.08 | A 1.8 | N 2.96 | P 3.31 | Y 2.11 | I 2.21 | K 2.54 | R 1.48 | V 1.36 | F 3.1 | M 1.1
S9: K 1.72 | P 2.5 | H 3.52 | T 4.83 | G 1.9 | I 2.15 | N 2.39 | Q 2.35 | M 3.56 | V 1.64 | Y 3.01 | C 2.09 | L 2.59 | F 2.75
A1: R 3.15 | M 2.42 | E 1.79 | T 2.12 | C 2.22 | H 1.78 | G 3.21 | W 2.44 | S 4.21 | Y 2.87 | K 3.61 | L 2.49 | V 2.11
S13: D 2.27 | Y 3.16 | I 1.36 | W 3.02 | N 3.74 | R 2.27 | F 1.54 | M 2.09 | L 1.69 | Q 2.43 | P 2.41 | H 2.36 | V 3.12
L22: N 2.66 | R 1.61 | T 1.65 | A 2.09 | C 1.4 | G 1.41 | P 3.05 | D 1.79 | H 2.13 | M 1.32 | W 2.17
G3: D 1.45 | N 2.75 | H 1.14 | P 3.37 | A 2.75
S8: P 2.27 | V 3.2 | D 3.96 | H 2.39 | E 1.83
S16: D 2.46 | K 2.9 | I 2.64 | N 2.77 | W 1.86 | T 1.95 | G 1.75 | A 2.73 | F 2.12 | E 3.11 | Y 1.78 | H 3.4 | R 2.79
W4: P 3.99 | C 2.77 | Y 2.37 | G 3.48 | H 2.49 | E 1.91 | T 1.47 | L 1.67
C10: N 3.16 | F 3.06 | G 3.33 | L 2.7 | R 2.77
V19: C 1.56 | Q 1.91 | E 2.23 | I 3.39 | D 1.52 | K 1.67 | G 2.58 | M 3.54 | F 3.22 | R 2.36 | P 1.35 | H 1.59 | S 2.36 | A 1.57 | Y 3.2 | N 3 | T 2.79
A17: I 3.06 | K 3.13 | D 3.07 | W 2.94 | N 1.65 | M 1.86 | Y 2.43 | V 2.19 | C 2.38 | H 2.31 | P 2.21 | E 2.93
C23: D 1.92
R6: N 1.77 | H 2.77 | L 3.45 | F 1.93 | Q 2.12 | C 2.07 | Y 2.65 | A 2.65 | I 3.19
F5: Y 4 | G 2.57 | K 3.49 | Q 2.99 | C 1.77 | I 2.35
Q18: A 2.37 | I 2.59 | P 2.52 | T 1.57 | K 1.42 | W 2.88 | H 2.68 | C 3.51 | V 4.68 | N 1.71 | S 2.14 | D 2.22 | M 3.17
F2: P 2.67 | T 2.73 | D 2.56

Variants of: B2
Test: as above
Conditions: c terminus: a fixed tail appended

Protein stability index of substitutions, site by site:
S23: K 2.42 | V 4.29 | L 3.71 | A 3.86 | Q 3.82 | R 2.15 | C 2.56 | P 2.46 | W 2.84 | T 2.84 | Y 4.04 | H 2.76 | M 2.67 | D 4.24 | F 1.78 | N 2.58 | G 2.99 | I 2.86
M24: A 3.27 | P 3.41 | C 2.27 | F 3.27 | Y 2.58 | V 3.3 | W 3.96 | N 3.98 | L 1.24 | D 3.67 | I 2.02 | T 2.89
S18: P 2.5 | W 2.37 | N 3.31 | K 2.67 | V 1.8 | I 3.52 | T 2.94 | R 3.87 | Y 2.26 | Q 2.54
P22: Y 3.21 | I 3.76 | C 2.72 | W 3.15 | M 2.94 | F 2.46 | E 3.69 | L 2.95 | V 2.1 | Q 3.27 | T 2.38 | K 3.56 | D 2.56
V21: C 3.1 | M 2.58 | I 2.55 | R 1.86 | F 1.96 | N 3.36 | K 3.59 | S 2.8 | D 4.14 | P 2.96 | W 2.5 | T 2.02 | Q 2.67
T20: I 2.43 | F 2.71 | D 1.12 | Y 3.62 | N 2.96 | G 1.69 | E 2.71 | V 3.39 | M 4.27 | P 1.39 | L 2.99 | Q 3.11 | W 2.62
V19: P 2.55 | Q 3.27 | L 2.42 | T 4.48 | H 2.77 | R 2.38 | D 3.51 | F 3.66 | K 3.29 | Y 2.93 | M 2.97 | I 2.3 | S 3.48 | E 1.14 | A 1.59 | W 1.96 | C 3.96
